Assay [1] has as its target linear di-ubiquitin (UniProt P0CG48 1-76; P0CG48 1-76). The assay can be described thus: ITC.
Assay [2] has as its target mono-ubiquitin (untagged, native N- and C-termini) (UniProt P0CG48 1-76). Nature of the assay: crystal structure.

B1: HOIP-RBR (residues 696–1072) (domain or fragment, human, UniProt Q96EP0 696-1072, looked up)
chain: AQECAVCGWALPHNRMQALTSCECTICPDCFRQHFTIALKEKHITDMVCPACGRPDLTDDTQLLSYFSTLDIQLRESLEPDAYALFHKKLTEGVLMRDPKFLWCAQCSFGFIYEREQLEATCPQCHQTFCVRCKRQWEEQHRGRSCEDFQNWKRMNDPEYQAQGLAMYLQENGIDCPKCKFSYALARGGCMHFHCTQCRHQFCSGCYNAFYAKNKCPEPNCRVKKSLHGHHPRDCLFYLRDWTALRLQKLLQDNNVMFNTEPPAGARAVPGGGCRVIEQKEVPNGLRDEACGKETPAGYAGLCQAHYKEYLVSLINAHSLDPATLYEVEELETATERYLHVRPQPLAGEDPPAYQARLLQKLTEEVPLGQSIPRRRK
Consider B1, for which the binding result in assay [1] and in assay [2] was “binds” each time.

The values are drawn from publication PMC4856479 (Nature, 2016).
